In patent US20140093496A1 (Chugai, published 2014):

Experiments:
[1] = biological target: T1, FcγRIIIa type V extracellular domain with C-terminal His tag (human, UniProt P08637 17-208); assay: SPR (Biacore), antibody captured, FcγR analyte
T1 construct: extracellular domain; also called FcγRIIIaV; FcgRIIIaV; not shown: His tag at the C terminus
Text: (§1) Furthermore, KD(IIaR)/KD(IIb) and KD(IIaH)/KD(IIb) in the table respectively show the value obtained by dividing the KD value of each variant for FcγRIIaR by the KD value of each variant for FcγRIIb, and the value obtained by dividing the KD value of each variant for FcγRIIaH by the KD value of each variant for FcγRIIb. KD(IIb) of the parent polypeptide/KD(IIb) of the altered polypeptide refers to a value obtained by dividing the KD value of the parent polypeptide for FcγRIIb by the KD value of each variant for FcγRIIb.
(§2) Kinetic analyses for calculating the KD values of each altered antibody for FcγR were performed according to the following method. First, antibodies of interest were captured onto the above-mentioned sensor chips, and an Fcγ receptor diluted with the running buffer was allowed to interact. The Biacore Evaluation Software was used to globally fit the measured results to the obtained sensorgram using the 1:1 Langmuir binding model, and the association rate constant ka (L/mol/s) and the dissociation rate constant kd (1/s) were calculated; and from those values the dissociation constants KD (mol/L) were calculated.

[2] = biological target: T2, FcγRIIb extracellular domain with C-terminal His tag (human, UniProt P31994 43-217); assay: SPR (Biacore), antibody captured, FcγR analyte
T2 construct: extracellular domain; also called FcgRIIb; FcγRIIb extracellular region; not shown: His tag at the C terminus
T2 sequence (looked up): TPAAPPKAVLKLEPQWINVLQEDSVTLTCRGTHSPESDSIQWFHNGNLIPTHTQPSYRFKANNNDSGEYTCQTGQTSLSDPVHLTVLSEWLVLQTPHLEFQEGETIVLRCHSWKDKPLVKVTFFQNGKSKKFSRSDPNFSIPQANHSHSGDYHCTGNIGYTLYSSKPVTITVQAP
Text: as §1, §2

[3] = biological target: T3, FcγRIIa type R extracellular domain with C-terminal His tag (human, UniProt P12318 34-217); assay: SPR (Biacore), antibody captured, FcγR analyte
T3 chain: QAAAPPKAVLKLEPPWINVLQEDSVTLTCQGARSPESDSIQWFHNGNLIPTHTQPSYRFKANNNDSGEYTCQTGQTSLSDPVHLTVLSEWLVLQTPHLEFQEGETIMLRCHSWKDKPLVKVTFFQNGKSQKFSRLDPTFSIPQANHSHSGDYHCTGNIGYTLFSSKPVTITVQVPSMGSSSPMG
Text: as §1, §2

[4] = biological target: T4, FcγRIIa type R extracellular domain, C-terminal His tag (human, UniProt P12318 34-217); assay: SPR (Biacore), antibody captured, FcγR as analyte
T4 construct: extracellular domain; also called FcgRIIaR; FcγRIIaR; not shown: His tag at the C terminus
T4 sequence (looked up): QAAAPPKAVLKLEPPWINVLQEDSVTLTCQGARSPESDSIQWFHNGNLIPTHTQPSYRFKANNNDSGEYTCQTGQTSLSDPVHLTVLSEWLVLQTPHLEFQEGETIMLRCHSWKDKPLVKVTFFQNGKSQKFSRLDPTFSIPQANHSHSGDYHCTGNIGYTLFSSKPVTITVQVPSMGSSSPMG

[5] = biological target: T5, FcγRIa extracellular domain, C-terminal His tag (human, UniProt P12314 16-292); assay: SPR (Biacore), antibody captured, FcγR as analyte
T5 construct: the whole entry is named; also called FcgRIa; CD64A; not shown: His tag at the C terminus

[6] = biological target: T6, FcγRIIa type H extracellular domain with C-terminal His tag (human, UniProt P12318 34-217); assay: SPR (Biacore), antibody captured, FcγR analyte
T6 construct: extracellular domain; also called FcγRIIa H; FcγRIIaH; not shown: His tag at the C terminus
T6 sequence (looked up): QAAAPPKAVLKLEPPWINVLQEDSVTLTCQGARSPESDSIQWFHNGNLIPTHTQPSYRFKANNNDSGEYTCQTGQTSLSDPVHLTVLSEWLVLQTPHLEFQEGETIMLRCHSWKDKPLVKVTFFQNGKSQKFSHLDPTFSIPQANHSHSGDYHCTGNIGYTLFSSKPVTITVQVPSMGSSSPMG
Text: as §1, §2

[7] = biological target: T7, FcγRIa extracellular domain with C-terminal His tag (human, UniProt P12314 16-292); assay: SPR (Biacore): antibody captured on the chip, FcγR as analyte; amount bound per amount captured, relative to GpH7-B3/GpL16-k0 without mutation = 100
T7 construct: whole entry named; also called FcgRIa; CD64A; not shown: His tag at the C terminus
Text: (§3) B3 variants were expressed and purified using the method of Reference Example 1, and the binding to each FcγR (FcγRIa, FcγRIIa type H, FcγRIIa type R, FcγRIIb, and FcγRIIIa) was comprehensively evaluated using the method of Reference Example 2.
(§4) Figures were produced based on the results of interaction analysis with each FcγR by the method below. […] The value obtained by multiplying this value by 100 was used as an indicator of the relative FcγR-binding activity of each variant.

[8] = biological target: T2, FcγRIIb extracellular domain with …; assay: as above
Text: as §3, §4

[9] = biological target: T8, FcγRIIIa extracellular domain with C-terminal His tag (allotype not given) (human, UniProt P08637 17-208); assay: SPR (Biacore): antibody captured on the chip, FcγR as analyte; amount bound per amount captured, relative to GpH7-B3/GpL16-k0 without mutation = 100; FcγR concentration not shown
T8 construct: extracellular domain; also called CD16A; not shown: His tag at the C terminus
Text: as §3, §4

[10] = biological target: T6, FcγRIIa type H extracellular domain …; assay: SPR (Biacore): antibody captured on the chip, FcγR as analyte; amount bound per amount captured, relative to GpH7-B3/GpL16-k0 without mutation = 100
Text: as §3, §4

T5 sequence (P12314 16-292): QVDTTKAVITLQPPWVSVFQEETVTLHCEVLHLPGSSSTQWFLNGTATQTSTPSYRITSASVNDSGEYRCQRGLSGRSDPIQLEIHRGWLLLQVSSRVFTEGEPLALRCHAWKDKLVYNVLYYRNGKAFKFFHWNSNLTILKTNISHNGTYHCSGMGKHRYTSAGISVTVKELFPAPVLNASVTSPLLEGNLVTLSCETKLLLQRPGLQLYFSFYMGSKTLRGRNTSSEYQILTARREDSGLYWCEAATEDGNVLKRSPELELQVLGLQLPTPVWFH
T1 sequence (P08637 17-208 F176V): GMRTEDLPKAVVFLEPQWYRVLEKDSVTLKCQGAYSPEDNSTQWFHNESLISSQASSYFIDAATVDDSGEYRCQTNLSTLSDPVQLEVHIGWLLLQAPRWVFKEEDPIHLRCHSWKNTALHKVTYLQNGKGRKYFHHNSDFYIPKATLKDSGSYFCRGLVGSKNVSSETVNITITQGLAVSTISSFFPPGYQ
T7 sequence (P12314 16-292): as the sequence (P12314 16-292) above
T8 sequence (P08637 17-208): as the sequence (P08637 17-208 F176V) above, with V160F counted along it

B1: IL6R-PD079/IL6R-L (antibody, human IgG1, kappa)
heavy: QVQLQESGPGLVKPSETLSLTCAVSGHSISHDHAWSWVRQPPGEGLEWIGFISYSGITNYNPSLQGRVTISRDNSKNTLYLQMNSLRAEDTAVYYCARSLARTTAMDYWGEGTLVTVSSASTKGPSVFPLAPSSKSTSGGTAALGCLVKDYFPEPVTVSWNSGALTSGVHTFPAVLQSSGLYSLSSVVTVPSSSLGTQTYICNVNHKPSNTKVDKKVEPKSCDKTHTCPPCPAPELLGADSVFLFPPKPKDTLYISRTPEVTCVVVDVSHEDPEVKFNWYVDGVEVHNAKTKPREEQYNSTYRVVSVLTVLHQDWLNGKEYKCKVSNKALPAPIEKTISKAKGQPREPQVYTLPPSRDELTKNQVSLTCLVKGFYPSDIAVEWESNGQPENNYKTTPPVLDSDGSFFLYSKLTVDKSRWQQGNVFSCSVMHEALHYHYTQKSLSLSP
light: not shown
notes: IL6R-F11 with P238D/G237A; copies: 2 + 2
B1 was tested, and the Kd [1] was 37 µM, the Kd [2] was 3 µM and the Kd [3] was 32 µM.

B2: IL6R-PD080/IL6R-L (antibody, human IgG1, kappa)
heavy: QVQLQESGPGLVKPSETLSLTCAVSGHSISHDHAWSWVRQPPGEGLEWIGFISYSGITNYNPSLQGRVTISRDNSKNTLYLQMNSLRAEDTAVYYCARSLARTTAMDYWGEGTLVTVSSASTKGPSVFPLAPSSKSTSGGTAALGCLVKDYFPEPVTVSWNSGALTSGVHTFPAVLQSSGLYSLSSVVTVPSSSLGTQTYICNVNHKPSNTKVDKKVEPKSCDKTHTCPPCPAPELLGDDSVFLFPPKPKDTLYISRTPEVTCVVVDVSHEDPEVKFNWYVDGVEVHNAKTKPREEQYNSTYRVVSVLTVLHQDWLNGKEYKCKVSNKALPAPIEKTISKAKGQPREPQVYTLPPSRDELTKNQVSLTCLVKGFYPSDIAVEWESNGQPENNYKTTPPVLDSDGSFFLYSKLTVDKSRWQQGNVFSCSVMHEALHYHYTQKSLSLSP
light: not shown
notes: IL6R-F11 with P238D/G237D; copies: 2 + 2
B2 was tested, and the Kd [1] was 43 µM, the Kd [2] was 2 µM and the Kd [3] was 21 µM.

B3: IL6R-BP106/IL6R-L (antibody, human IgG1, kappa)
heavy: QVQLQESGPGLVKPSETLSLTCAVSGHSISHDHAWSWVRQPPGEGLEWIGFISYSGITNYNPSLQGRVTISRDNSKNTLYLQMNSLRAEDTAVYYCARSLARTTAMDYWGEGTLVTVSSASTKGPSVFPLAPSSKSTSGGTAALGCLVKDYFPEPVTVSWNSGALTSGVHTFPAVLQSSGLYSLSSVVTVPSSSLGTQTYICNVNHKPSNTKVDKKVEPKSCDKTHTCPPCPAPELLGGDSVFLFPPKPKDTLMISRTPEVTCVVVDVSDEDPEVKFNWYVDGVEVHNAKTKPREEQYNSTYRVVSVLTVLHQDWLNGKEYKCKVSNKALPAPIEKTISKAKGQPREPQVYTLPPSRDELTKNQVSLTCLVKGFYPSDIAVEWESNGQPENNYKTTPPVLDSDGSFFLYSKLTVDKSRWQQGNVFSCSVMHEALHNHYTQESLSLSP
light: not shown
notes: IgG1; P238D/H268D (EU numbering) introduced into IL6R-B3
Binder B3 has a Kd [4] of 11 µM and a Kd [5] of 0.004 µM.

B4: IL6R-PD087/IL6R-L (antibody, human IgG1, kappa)
heavy: QVQLQESGPGLVKPSETLSLTCAVSGHSISHDHAWSWVRQPPGEGLEWIGFISYSGITNYNPSLQGRVTISRDNSKNTLYLQMNSLRAEDTAVYYCARSLARTTAMDYWGEGTLVTVSSASTKGPSVFPLAPSSKSTSGGTAALGCLVKDYFPEPVTVSWNSGALTSGVHTFPAVLQSSGLYSLSSVVTVPSSSLGTQTYICNVNHKPSNTKVDKKVEPKSCDKTHTCPPCPAPELLGMDSVFLFPPKPKDTLYISRTPEVTCVVVDVSHEDPEVKFNWYVDGVEVHNAKTKPREEQYNSTYRVVSVLTVLHQDWLNGKEYKCKVSNKALPAPIEKTISKAKGQPREPQVYTLPPSRDELTKNQVSLTCLVKGFYPSDIAVEWESNGQPENNYKTTPPVLDSDGSFFLYSKLTVDKSRWQQGNVFSCSVMHEALHYHYTQKSLSLSP
light: not shown
notes: IL6R-F11 with P238D/G237M; copies: 2 + 2
Work on B4 yielded a Kd [1] of 37 µM, a Kd [6] of 20 µM and a Kd [3] of 22 µM.

B5: IL6R-2B172/IL6R-L (antibody, human IgG1, kappa)
heavy: QVQLQESGPGLVKPSETLSLTCAVSGHSISHDHAWSWVRQPPGEGLEWIGFISYSGITNYNPSLQGRVTISRDNSKNTLYLQMNSLRAEDTAVYYCARSLARTTAMDYWGEGTLVTVSSASTKGPSVFPLAPSSKSTSGGTAALGCLVKDYFPEPVTVSWNSGALTSGVHTFPAVLQSSGLYSLSSVVTVPSSSLGTQTYICNVNHKPSNTKVDKKVEPKSCDKTHTCPPCPAPELLGGDSVFLFPPKPKDTLMISRTPEVTCVVVDVSHEDPEVKFNWYVDGVEVHNAKTKPREEQYNSTYRVVSVLTVLHQDWLNGKEYKCKMSNKALPAPIEKTISKAKGQPREPQVYTLPPSRDELTKNQVSLTCLVKGFYPSDIAVEWESNGQPENNYKTTPPVLDSDGSFFLYSKLTVDKSRWQQGNVFSCSVMHEALHNHYTQESLSLSP
light: not shown
notes: IgG1; P238D/V323M (EU numbering) introduced into IL6R-B3
B5 showed a Kd [4] of 6.1 µM and a Kd [5] of 0.003 µM.

B6: IL6R-BP119/IL6R-L (antibody, human IgG1, kappa)
heavy: QVQLQESGPGLVKPSETLSLTCAVSGHSISHDHAWSWVRQPPGEGLEWIGFISYSGITNYNPSLQGRVTISRDNSKNTLYLQMNSLRAEDTAVYYCARSLARTTAMDYWGEGTLVTVSSASTKGPSVFPLAPSSKSTSGGTAALGCLVKDYFPEPVTVSWNSGALTSGVHTFPAVLQSSGLYSLSSVVTVPSSSLGTQTYICNVNHKPSNTKVDKKVEPKSCDKTHTCPPCPAPELLGGDSVFLFPPKPKDTLMISRTPEVTCVVVDVSHEDPEVKFNWYVDGVEVHNAKTKPREEQYNSTYRVVSVLTVLHQDWLNGKEYKCKVSNMALPAPIEKTISKAKGQPREPQVYTLPPSRDELTKNQVSLTCLVKGFYPSDIAVEWESNGQPENNYKTTPPVLDSDGSFFLYSKLTVDKSRWQQGNVFSCSVMHEALHNHYTQESLSLSP
light: not shown
notes: IgG1; P238D/K326M (EU numbering) introduced into IL6R-B3
With B6 the Kd [4] was 9.9 µM and the Kd [5] was 0.007 µM.

B7: B3 variant of GpH7-B3/GpL16-k0 with mutation A (Pro at position 238 (EU numbering) substituted with Asp) (antibody, human IgG1, kappa)
heavy: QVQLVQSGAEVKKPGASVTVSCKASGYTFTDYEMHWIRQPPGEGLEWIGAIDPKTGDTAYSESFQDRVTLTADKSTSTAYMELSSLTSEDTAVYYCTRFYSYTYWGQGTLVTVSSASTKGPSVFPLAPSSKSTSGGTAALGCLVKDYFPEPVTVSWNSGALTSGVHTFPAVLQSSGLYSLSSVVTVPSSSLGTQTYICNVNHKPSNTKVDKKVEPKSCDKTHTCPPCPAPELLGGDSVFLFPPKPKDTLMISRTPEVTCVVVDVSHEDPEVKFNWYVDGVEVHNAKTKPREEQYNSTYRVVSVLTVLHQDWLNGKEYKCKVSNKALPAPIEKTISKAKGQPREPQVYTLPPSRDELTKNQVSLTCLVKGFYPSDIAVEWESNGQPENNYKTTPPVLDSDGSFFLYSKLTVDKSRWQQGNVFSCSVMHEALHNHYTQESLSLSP
light: DIVMTQSPLSLPVTPGEPASISCQASESLVHSNRNTYLHWYLQKPGQSPQLLIYKVSNRFSGVPDRFSGSGSGTDFTLKISRVEAEDVGVYYCSQNTHVPPTFGQGTKVEIERTVAAPSVFIFPPSDEQLKSGTASVVCLLNNFYPREAKVQWKVDNALQSGNSQESVTEQDSKDSTYSLSSTLTLSKADYEKHKVYACEVTHQGLSSPVTKSFNRGEC
notes: copies: 2 + 2
B7: binds [7]; binds [8]; no binding [9].

B8: B3 variant of GpH7-B3/GpL16-k0 with mutation B (Leu at position 328 (EU numbering) substituted with Glu) (antibody, human IgG1, kappa)
heavy: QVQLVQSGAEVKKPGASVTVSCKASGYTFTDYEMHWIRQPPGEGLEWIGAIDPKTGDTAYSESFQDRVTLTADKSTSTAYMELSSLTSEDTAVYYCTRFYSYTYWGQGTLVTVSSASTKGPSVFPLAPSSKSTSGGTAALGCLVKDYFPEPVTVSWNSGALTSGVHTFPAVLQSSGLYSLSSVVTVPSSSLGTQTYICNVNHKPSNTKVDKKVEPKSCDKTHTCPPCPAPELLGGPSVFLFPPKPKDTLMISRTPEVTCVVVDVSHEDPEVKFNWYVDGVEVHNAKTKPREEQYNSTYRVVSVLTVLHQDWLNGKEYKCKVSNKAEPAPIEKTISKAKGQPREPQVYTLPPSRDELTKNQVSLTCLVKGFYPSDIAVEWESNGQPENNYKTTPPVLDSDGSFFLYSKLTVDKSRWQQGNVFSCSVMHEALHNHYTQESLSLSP
light: DIVMTQSPLSLPVTPGEPASISCQASESLVHSNRNTYLHWYLQKPGQSPQLLIYKVSNRFSGVPDRFSGSGSGTDFTLKISRVEAEDVGVYYCSQNTHVPPTFGQGTKVEIERTVAAPSVFIFPPSDEQLKSGTASVVCLLNNFYPREAKVQWKVDNALQSGNSQESVTEQDSKDSTYSLSSTLTLSKADYEKHKVYACEVTHQGLSSPVTKSFNRGEC
notes: copies: 2 + 2
B8: binds [7]; binds [8]; binds [10].
